Assay results from the supplement of paper PMC11908140.

B1: library; numbered along this chain (parent)
chain: MRKPRAAVGSGHRKQAASQEGRQKHAKNNSQAKPSACDGLARQPEEVVLQASVSSYHLFRDVAEVTAFRGSLLSWYDQEKRDLPWRRRAEDEMDLDRRAYAVWVSEVMLQQTQVATVINYYTGWMQKWPTLQDLASASLEEVNQLWAGLGYYSRGRRLQEGARKVVEELGGHMPRTAETLQQLLPGVGRYTAGAIASIAFGQATGVVDGNVARVLCRVRAIGADPSSTLVSQQLWGLAQQLVDPARPGDFNQAAMELGATVCTPQRPLCSQCPVESLCRARQRVEQEQLLASGSLSGSPDVEECAPNTGQCHLCLPPSEPWDQTLGVVNFPRKASRKPPREESSATCVLEQPGALGAQILLVQRPNSGLLAGLWEFPSVTWEPSEQLQRKALLQELQRWAGPLPATHLRHLGEVVHTFSHIKLTYQVYGLALEGQTPVTTVPPGARWLTQEEFHTAAVSTAMKKVFRVYQGQQPGTCMGSKRSQVSSPCSRKKPRMGQQVLDNFFRSHISTDAHSLNSAAQ

Variants of: B1
Test: 8OG:A repair function score (normalized; synonymous = 0, nonsense = -1) (normalized log-likelihood score); higher = more repair activity (WT-like)
Conditions: with 8OG:A DNA repair reporter (GFP) in HEK-293 MUTYH KO cells
How it was run: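 After 72 h, viable mCherry+ cells were split into GFP+ (repair) and GFP− bins in three replicates per tile. These cells were MUTYH knockout HEK-293 cells holding lentiviral MUTYH cDNA NNN codon-scan libraries, kept in 10 pg/ml doxycycline and co-transfected with mCherry plus an 8OG:A GFP repair reporter. Sequencing of tile amplicons gave per-tile Rosace fitness scores, normalized into a repair function score anchored on synonymous and nonsense distributions. Synonymous medians were fixed at 0, nonsense at -1, and variants under 300 counts per million at the start were removed.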
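Also: cells sorted at 72 h after reporter transfection.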

8OG:A repair function score of substitutions, site by site:
Q435: K 0.0819, E -0.132, T 0.028, M 0.051, F -0.052, G -0.0569, I 0.00734, R 0.0382, D 0.0234, P 0.288, Y 0.0772, N -0.138, A -0.0344, H 0.148, V -0.157, W -0.125, C 0.293, L 0.0233, S 0.261
E433: Q 0.165, P 0.219, H -0.0353, W -0.393, Y -0.0863, K -0.0112, L -0.0355, T -0.00904, I 0.00922, A 0.0651, S 0.0139, R 0.0685, C -0.179, D -0.241, N -0.0644, M -0.0329, F -0.199, G 0.00508, V -0.164
Y428: C -0.883, L -0.828, F -0.153, P -1.18, E -1.1, M -0.656, I -1.03, S -0.915, K -0.832, H -0.753, A -1.05, W 0.228, Q -1.2, D -1.09, R -1.14, V -1.03, T -1.1, N -1.01, G -1.13
P443: L 0.058, F 0.179, C -9.64e-05, Q 0.0864, N 0.222, E -0.318, K -0.324, I 0.0878, G -0.0689, H 0.055, R -0.143, V 0.172, M 0.0448, S 0.0247, D -0.00467, T -0.199, W -0.309, A 0.0799, Y -0.0335
P442: W -0.205, A -0.19, T -0.0315, I -0.0279, E -0.177, Q 0.213, M 0.0715, C -0.141, V -0.0512, S 0.00212, Y -0.28, H 0.0816, N -0.426, R -0.0654, K -0.261, D -0.0873, F -0.0534, L -0.12, G -0.171
P437: W 0.078, T -0.142, H 0.0786, F -0.282, E 0.0852, L -0.197, Y -0.351, I -0.277, C -0.244, A -0.00344, D -0.128, N -0.284, G 0.136, V -0.0519, Q -0.0348, S -0.0348, K -0.15, R -0.174, M -0.528
T440: I -0.117, Y 0.157, P -0.041, A -0.131, H -0.111, K 0.0852, S 0.0249, Q -0.0653, V -0.0931, C 0.0206, N -0.313, D -0.0869, G -0.145, M -0.109, R -0.0347, E 0.0718, W -0.105, F 0.0139, L -0.194
G429: Y -0.0542, M -0.288, I -0.0856, R -0.355, C 0.227, W -0.114, Q -0.283, S -0.131, V -0.00866, D -0.382, P -1.12, F 0.209, K -0.404, E -0.296, H -0.299, L -0.125, T -0.219, A 0.031, N -0.133
V427: E -1.24, P -1.13, G -1.03, I -0.18, Q -1.16, F -1.1, R -1.04, N -1.15, H -1.08, Y -1.2, M -0.599, S -0.925, W -0.831, L -0.345, A -0.455, T -0.409, D -1.2, C -0.195, K -1.06
V441: C -0.261, L -0.0169, G -0.221, Y -0.0452, S -0.0467, T -0.0387, M 0.176, K -0.215, H -0.533, R -0.293, P -0.0374, N -0.259, D -0.144, E -0.161, A -0.0435, Q -0.259, I -0.0341, W -0.278, F -0.0997
T436: M 0.186, W -0.00145, A 0.195, P -0.0919, I -0.0834, K -0.201, N -0.0228, G -0.0926, F -0.0267, L 0.548, H 0.323, R -0.124, Q 0.0306, S -0.173, Y 0.0674, D 0.113, C -0.201, E -0.16, V -0.079
V438: I -0.407, A 0.149, T -0.0976, D 0.0779, F -0.193, C 0.134, M -0.252, R 0.11, S -0.176, K -0.0297, L -0.0153, Y -0.0793, E 0.281, N 0.103, Q 0.187, H -0.17, P 0.0371, W -0.131, G -0.176
L430: Y -0.0889, V -0.165, C -0.0232, Q -0.561, S -0.127, K -0.617, M -0.448, W 0.0653, I -0.29, F 0.0205, T -0.477, A -0.143, N -0.276, D -0.393, E -0.36, R -0.655, P -0.888, G -0.304, H -0.604
G434: E 0.0175, S -0.0544, Y 0.0378, C 0.163, L -0.158, I -0.0439, W 0.0509, A 0.188, N -0.392, D -0.275, Q -0.0366, K 0.22, R -0.0648, V -0.0502, P -0.0275, M 0.0898, H -0.0472, T -0.0414, F 0.125
T439: C -0.19, L -0.0119, M 0.106, Q -0.173, G 0.107, S -0.0274, V 0.0472, I 0.0704, D -0.225, H 0.301, F -0.0571, Y -0.104, A 0.0597, K 0.00137, E 0.0225, P 0.126, W 0.0448, N -0.0163, R -0.0617
Q426: Y 0.0116, T -0.247, M -0.183, V -0.068, N -0.05, W -0.215, K 0.106, R -0.143, P -0.928, L -0.0573, S -0.0807
L432: Q -0.604, K -0.608, P -0.514, W 0.0604, I -0.208, H -0.223, N -0.504, G -0.302, E -0.542, S -0.284, T -0.151, R -0.334, D -0.57, M -0.284, C 0.0294, A -0.541, F -0.116, Y -0.499, V -0.118
A431: C -0.0248, S 0.129, R -0.0201, F -0.237, W -0.13, L 0.0682, I 0.0332, H 0.358, T -0.0229, P -0.0943, Y -0.0701, N 0.00246, E 0.346, D -0.204, M -0.23, K 0.126, V -0.0559, G -0.211, Q -0.242
